± gives the standard deviation of the averaged measurements.
The sequences below were run on ATP (assay: switch fluorescence ratio, 500 uM ATP over buffer (Cy3 cluster intensity, sum of 5 cycles each) (fold (ratio)); higher = stronger signal-on switching upon ATP binding; sequences stand for … in TCGTCGGCAGCGTCAGATGTGTATAAGAGACAGTTTTTTTTTTTTTTTTTTTTTTTTT…TC). Details: aptamer strand: ATP DNA aptamer (quencher-CACCTGGGGGAGTATTGCGGAGGAAGG + anchor), 100 nM annealed; ATP concentration: 500 uM.
Method in brief: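 Switching-strand clusters labelled with Cy3 on a modified Illumina MiSeq flow-cell were annealed to 100 nM quencher-labelled ATP aptamer, imaged in selection buffer, and re-imaged after 15 min with 500 uM ATP at 22 °C. This was done over five cycles with NaOH stripping and re-annealing in between. The fluorescence ratio is summed target-cycle over summed buffer-cycle Cy3 intensity per cluster, averaged per switch-domain sequence, excluding clusters outside 100-1000 RFU.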
For TCGATATTTA, the switch fluorescence ratio was 0.982 ± 0.02. In the case of TCGATCGCAT, the switch fluorescence ratio is reported as 2.51 ± 2.2. With TCGATCGCTA the switch fluorescence ratio was 1.43 ± 0.59. TCGATCTGTG gave a switch fluorescence ratio of 0.99652 ± 0.00045. Sequence TCGATGTTGT has a switch fluorescence ratio of 0.987 ± 0.03. Sequence TCGATTTTGG has a switch fluorescence ratio of 1 ± 0.029. Work on TCGCAGGGGG yielded a switch fluorescence ratio of 0.992 ± 0.043. In the case of TCGCCATGAT, the switch fluorescence ratio is reported as 0.999 ± 0.02. Sequence TCGCCCGAGC has a switch fluorescence ratio of 1.09 ± 0.11. TCGCCGTTCT showed a switch fluorescence ratio of 0.99 ± 0.033. TCGCGAGAGC was tested, and the switch fluorescence ratio was 1.004 ± 0.0057. In the case of TCGCGCCCTG, the switch fluorescence ratio is reported as 1.03 ± 0.043. Work on TCGCGGTTCT yielded a switch fluorescence ratio of 1.11 ± 0.085. In the case of TCGCGTCTCA, the switch fluorescence ratio is reported as 1.01 ± 0.046. Sequence TCGCTATTTA has a switch fluorescence ratio of 1.033 ± 0.0085. With TCGCTGAAGC the switch fluorescence ratio was 1.02 ± 0.013. For TCGCTTAATT, the switch fluorescence ratio was 1.02 ± 0.032. With TCGCTTCTCT the switch fluorescence ratio was 1.76 ± 1. TCGCTTTACT was tested, and the switch fluorescence ratio was 3.87 ± 0.81. TCGGAAGACA showed a switch fluorescence ratio of 1.01 ± 0.0069. TCGGAAGGCT was tested, and the switch fluorescence ratio was 0.999 ± 0.089. With TCGGAAGGG the switch fluorescence ratio was 0.988 ± 0.037. With TCGGAATATT the switch fluorescence ratio was 1.09 ± 0.062. Work on TCGGAATTGT yielded a switch fluorescence ratio of 0.9992 ± 0.0056. TCGGACGACC was tested, and the switch fluorescence ratio was 1.15 ± 0.12. TCGGACTCGG was tested, and the switch fluorescence ratio was 0.963 ± 0.017. Work on TCGGACTGGG yielded a switch fluorescence ratio of 1.01 ± 0.022. TCGGAGAGGG showed a switch fluorescence ratio of 0.974 ± 0.037. With TCGGAGGAAG the switch fluorescence ratio was 1.02 ± 0.012. For TCGGAGGCCT, the switch fluorescence ratio was 1.04 ± 0.04. TCGGAGGTGT gave a switch fluorescence ratio of 1.01 ± 0.027. Work on TCGGAGTAG yielded a switch fluorescence ratio of 1.04 ± 0.031. TCGGATAGCT was tested, and the switch fluorescence ratio was 1.02 ± 0.014. In the case of TCGGATAGTC, the switch fluorescence ratio is reported as 1.01 ± 0.026. In the case of TCGGATCCAA, the switch fluorescence ratio is reported as 1.048 ± 0.0022. TCGGATTGGA showed a switch fluorescence ratio of 0.981 ± 0.028. In the case of TCGGCACCAA, the switch fluorescence ratio is reported as 1.05 ± 0.046. TCGGCAGTGG showed a switch fluorescence ratio of 1.03 ± 0.027. TCGGCCATCG gave a switch fluorescence ratio of 1 ± 0.016. TCGGCGTATC showed a switch fluorescence ratio of 0.979 ± 0.01. TCGGCGTTCA gave a switch fluorescence ratio of 1.02 ± 0.02. With TCGGCTCTTG the switch fluorescence ratio was 1.013 ± 0.0046. In the case of TCGGCTTGGC, the switch fluorescence ratio is reported as 1.03 ± 0.086. TCGGCTTGGG was tested, and the switch fluorescence ratio was 0.987 ± 0.02. TCGGCTTTGG gave a switch fluorescence ratio of 0.9639 ± 0.0093. TCGGGAAGGT showed a switch fluorescence ratio of 1 ± 0.023. TCGGGAGTAT was tested, and the switch fluorescence ratio was 1.04 ± 0.03. In the case of TCGGGATAGC, the switch fluorescence ratio is reported as 1.08 ± 0.052. In the case of TCGGGATGTT, the switch fluorescence ratio is reported as 0.989 ± 0.027. TCGGGCTGGG showed a switch fluorescence ratio of 1.03 ± 0.0069. Sequence TCGGGCTGTG has a switch fluorescence ratio of 1.02 ± 0.05. TCGGGGACCG was tested, and the switch fluorescence ratio was 0.952 ± 0.052. TCGGGGATGA gave a switch fluorescence ratio of 1.067 ± 0.0092. In the case of TCGGGGCGCG, the switch fluorescence ratio is reported as 0.975 ± 0.061. Sequence TCGGGGCGG has a switch fluorescence ratio of 0.992 ± 0.011. Sequence TCGGGGCGGC has a switch fluorescence ratio of 1.02 ± 0.046. In the case of TCGGGGCGGG, the switch fluorescence ratio is reported as 1.01 ± 0.056. For TCGGGGGCGA, the switch fluorescence ratio was 1.13 ± 0.17. TCGGGGGCGT gave a switch fluorescence ratio of 1.03 ± 0.038. For TCGGGGGGG, the switch fluorescence ratio was 1.01 ± 0.016. TCGGGGGGGC gave a switch fluorescence ratio of 1.01 ± 0.072. In the case of TCGGGGGGTC, the switch fluorescence ratio is reported as 0.981 ± 0.043. TCGGGGGTG showed a switch fluorescence ratio of 1.01 ± 0.085. For TCGGGGGTGG, the switch fluorescence ratio was 0.988 ± 0.014. Sequence TCGGGGTTTA has a switch fluorescence ratio of 0.994 ± 0.059. Work on TCGGGGTTTC yielded a switch fluorescence ratio of 1.05 ± 0.019. With TCGGGTAAAC the switch fluorescence ratio was 1.03 ± 0.042. For TCGGGTAAGT, the switch fluorescence ratio was 1.01 ± 0.077. TCGGGTACTG showed a switch fluorescence ratio of 0.979 ± 0.093. TCGGGTATGG showed a switch fluorescence ratio of 1.01 ± 0.042. With TCGGGTCATG the switch fluorescence ratio was 1.04 ± 0.04. Sequence TCGGGTCCGC has a switch fluorescence ratio of 1.06 ± 0.046. TCGGGTCGCG gave a switch fluorescence ratio of 0.9948 ± 0.00097. TCGGGTGAAC gave a switch fluorescence ratio of 0.983 ± 0.041. In the case of TCGGGTGGGA, the switch fluorescence ratio is reported as 1.05 ± 0.058. TCGGGTGGTG showed a switch fluorescence ratio of 0.92 ± 0.16. TCGGGTTGGT was tested, and the switch fluorescence ratio was 1.02 ± 0.061. TCGGGTTTAT gave a switch fluorescence ratio of 1 ± 0.037. With TCGGTAGCGA the switch fluorescence ratio was 1.14 ± 0.17. TCGGTCAAGG was tested, and the switch fluorescence ratio was 0.949 ± 0.02. TCGGTCCTGC was tested, and the switch fluorescence ratio was 1 ± 0.024. TCGGTCGCGG gave a switch fluorescence ratio of 0.974 ± 0.028. Work on TCGGTCGTGC yielded a switch fluorescence ratio of 1.03 ± 0.034. For TCGGTGATGG, the switch fluorescence ratio was 0.988 ± 0.021. TCGGTGTCTA gave a switch fluorescence ratio of 0.985 ± 0.02. With TCGGTGTGCA the switch fluorescence ratio was 0.985 ± 0.024. Sequence TCGGTTAATA has a switch fluorescence ratio of 1.018 ± 0.0054. TCGGTTACAT was tested, and the switch fluorescence ratio was 0.983 ± 0.016. Work on TCGGTTCATT yielded a switch fluorescence ratio of 0.9962 ± 0.004. TCGGTTGTGT showed a switch fluorescence ratio of 1.08 ± 0.078. For TCGGTTGTTG, the switch fluorescence ratio was 1.01 ± 0.013. TCGGTTTAAC gave a switch fluorescence ratio of 1.04 ± 0.038. TCGGTTTGCA showed a switch fluorescence ratio of 0.997 ± 0.018. TCGGTTTGCG showed a switch fluorescence ratio of 1.01 ± 0.022. Sequence TCGTAACTTA has a switch fluorescence ratio of 1.03 ± 0.011. Work on TCGTAATGAG yielded a switch fluorescence ratio of 1.019 ± 0.0034. TCGTAATTGT showed a switch fluorescence ratio of 1.02 ± 0.024. For TCGTACATGA, the switch fluorescence ratio was 1.013 ± 0.00015. Work on TCGTACGAAG yielded a switch fluorescence ratio of 1 ± 0.032. TCGTAGAAGG gave a switch fluorescence ratio of 0.991 ± 0.048. Sequence TCGTAGAGTG has a switch fluorescence ratio of 0.954 ± 0.026. TCGTAGGGG was tested, and the switch fluorescence ratio was 0.961 ± 0.018. Sequence TCGTATACGG has a switch fluorescence ratio of 0.963 ± 0.044. For TCGTATTAAG, the switch fluorescence ratio was 0.969 ± 0.046. Sequence TCGTATTACG has a switch fluorescence ratio of 1.03 ± 0.094. In the case of TCGTCAAATT, the switch fluorescence ratio is reported as 0.991 ± 0.067. In the case of TCGTCAACGG, the switch fluorescence ratio is reported as 1.01 ± 0.023. In the case of TCGTCCGAAG, the switch fluorescence ratio is reported as 1.45 ± 0.04. TCGTCTAAGG showed a switch fluorescence ratio of 0.995 ± 0.014. Sequence TCGTCTAATG has a switch fluorescence ratio of 0.9784 ± 0.0016. With TCGTGAGGGG the switch fluorescence ratio was 1.02 ± 0.047. In the case of TCGTGATTGG, the switch fluorescence ratio is reported as 1.007 ± 0.0097. With TCGTGCGGTT the switch fluorescence ratio was 1.01 ± 0.032. TCGTGGGCGA showed a switch fluorescence ratio of 0.993 ± 0.011. TCGTGTATAT was tested, and the switch fluorescence ratio was 1 ± 0.027. TCGTGTATCT was tested, and the switch fluorescence ratio was 0.946 ± 0.039. TCGTGTATGA was tested, and the switch fluorescence ratio was 1.036 ± 0.0059. With TCGTGTGACT the switch fluorescence ratio was 0.98961 ± 8.7e-05. For TCGTGTGATG, the switch fluorescence ratio was 0.9686 ± 0.0049. TCGTGTTCGA was tested, and the switch fluorescence ratio was 1.001 ± 0.0094. Sequence TCGTTAATCA has a switch fluorescence ratio of 0.9835 ± 0.0088. For TCGTTAGATG, the switch fluorescence ratio was 0.989 ± 0.023. TCGTTAGGTG showed a switch fluorescence ratio of 1.03 ± 0.025. TCGTTATGT gave a switch fluorescence ratio of 0.97732 ± 9.1e-05. TCGTTATGTC was tested, and the switch fluorescence ratio was 1 ± 0.032. In the case of TCGTTCAATC, the switch fluorescence ratio is reported as 1.314 ± 0.01. With TCGTTGGGGG the switch fluorescence ratio was 0.995 ± 0.013. TCGTTGTTAT was tested, and the switch fluorescence ratio was 1 ± 0.023. With TCGTTTAATT the switch fluorescence ratio was 0.994 ± 0.04. In the case of TCGTTTTTGA, the switch fluorescence ratio is reported as 0.985 ± 0.039. TCGTTTTTGG was tested, and the switch fluorescence ratio was 1 ± 0.041. In the case of TCGTTTTTTA, the switch fluorescence ratio is reported as 1.22 ± 0.45. In the case of TCGTTTTTTG, the switch fluorescence ratio is reported as 0.984 ± 0.016. With TCTAAAGCTG the switch fluorescence ratio was 1 ± 0.023. Work on TCTAAAGGAT yielded a switch fluorescence ratio of 1.006 ± 0.004. TCTAAATAGC gave a switch fluorescence ratio of 1.05 ± 0.038. With TCTAAATCG the switch fluorescence ratio was 1.04 ± 0.055. For TCTAAATTTA, the switch fluorescence ratio was 1.01 ± 0.06. With TCTAAGGGTG the switch fluorescence ratio was 1.014 ± 0.01. In the case of TCTAAGGTTA, the switch fluorescence ratio is reported as 1 ± 0.02. In the case of TCTAATACGG, the switch fluorescence ratio is reported as 1.04 ± 0.02. TCTAATCCGG showed a switch fluorescence ratio of 1.015 ± 0.0051. TCTAATCGGA showed a switch fluorescence ratio of 0.975 ± 0.04. With TCTAATGGAA the switch fluorescence ratio was 1.01 ± 0.018. TCTACATGAT showed a switch fluorescence ratio of 1.05 ± 0.013. Sequence TCTACCTACA has a switch fluorescence ratio of 1.33 ± 0.051. Sequence TCTACGGGGT has a switch fluorescence ratio of 1.46 ± 0.55. TCTAGAATGG gave a switch fluorescence ratio of 0.982 ± 0.033. Work on TCTAGCAACG yielded a switch fluorescence ratio of 1.01 ± 0.032. In the case of TCTAGCGTAC, the switch fluorescence ratio is reported as 2.64 ± 0.44. Sequence TCTAGGAAAG has a switch fluorescence ratio of 0.991 ± 0.034. TCTAGGAGGT showed a switch fluorescence ratio of 0.987 ± 0.028. TCTAGGGGTG was tested, and the switch fluorescence ratio was 1.03 ± 0.025.

From the supplement of paper PMC10126150
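Note: ATP exposure 15 min at 22 °C before imaging.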
